Measured values from paper PMC10786891, “Massively parallel profiling of RNA-targeting CRISPR-Cas13d”.

T1: EsCas13d, nuclease-dead (Eubacterium siraeum, UniProt B0MS50, R295A;H300A;R849A;H854A)
T1 sequence: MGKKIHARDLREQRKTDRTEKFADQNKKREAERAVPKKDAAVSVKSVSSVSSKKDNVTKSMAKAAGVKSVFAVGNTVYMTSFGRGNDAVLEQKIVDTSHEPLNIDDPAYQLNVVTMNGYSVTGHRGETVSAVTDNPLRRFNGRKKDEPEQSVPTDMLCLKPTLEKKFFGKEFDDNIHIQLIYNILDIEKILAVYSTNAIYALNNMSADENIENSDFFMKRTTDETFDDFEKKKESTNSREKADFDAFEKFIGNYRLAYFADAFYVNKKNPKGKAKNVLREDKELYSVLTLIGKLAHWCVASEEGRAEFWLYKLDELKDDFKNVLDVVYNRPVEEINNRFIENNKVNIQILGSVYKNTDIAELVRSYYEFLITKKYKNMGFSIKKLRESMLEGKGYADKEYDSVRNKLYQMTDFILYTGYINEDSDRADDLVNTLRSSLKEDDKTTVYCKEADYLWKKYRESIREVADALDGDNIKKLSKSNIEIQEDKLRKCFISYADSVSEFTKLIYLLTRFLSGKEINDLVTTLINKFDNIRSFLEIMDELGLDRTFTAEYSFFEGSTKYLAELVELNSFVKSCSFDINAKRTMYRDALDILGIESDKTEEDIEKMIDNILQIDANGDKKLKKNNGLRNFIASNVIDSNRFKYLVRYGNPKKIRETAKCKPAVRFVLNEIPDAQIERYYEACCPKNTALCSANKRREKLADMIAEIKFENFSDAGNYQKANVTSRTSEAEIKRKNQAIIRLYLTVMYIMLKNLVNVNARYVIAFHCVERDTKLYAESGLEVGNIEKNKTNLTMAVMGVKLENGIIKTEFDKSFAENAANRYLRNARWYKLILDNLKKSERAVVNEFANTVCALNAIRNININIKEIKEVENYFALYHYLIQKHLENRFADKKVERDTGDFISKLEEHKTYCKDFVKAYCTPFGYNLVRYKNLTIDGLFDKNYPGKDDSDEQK

B1: target 1 U11C,A14C (mixed)
RNA 1: CACCCGUGCAAAAAUGCAGGGGUCUAAAACUGAGCGGAUAACCUCUCUAUGG
RNA 2: GGGAAUGGAUCCACAUCUACGAAUUCGUACCAUAGAGCGGCUAUCCGCUCACCGAGAUCGGAAGAGCACACGU
B2: target 1 insG 3' of 16,insU 3' of 5 (mixed)
RNA 1: CACCCGUGCAAAAAUGCAGGGGUCUAAAACUGAGCGGAUAACCUCUCUAUGG
RNA 2: GGGAAUGGAUCCACAUCUACGAAUUCGUACCAUAGAGGAGGUUAUCCGUCUCACCGAGAUCGGAAGAGCACACGU
B3: target 1 C4G,C22G (mixed)
RNA 1: CACCCGUGCAAAAAUGCAGGGGUCUAAAACUGAGCGGAUAACCUCUCUAUGG
RNA 2: GGGAAUGGAUCCACAUCUACGAAUUCGUAGCAUAGAGAGGUUAUCCGGUCACCGAGAUCGGAAGAGCACACGU
B4: target 1 insG 3' of 16,insG 3' of 6 (mixed)
RNA 1: CACCCGUGCAAAAAUGCAGGGGUCUAAAACUGAGCGGAUAACCUCUCUAUGG
RNA 2: GGGAAUGGAUCCACAUCUACGAAUUCGUACCAUAGAGGAGGUUAUCCGGCUCACCGAGAUCGGAAGAGCACACGU
B5: target 1 insC 3' of 12,insU 3' of 6 (mixed)
RNA 1: CACCCGUGCAAAAAUGCAGGGGUCUAAAACUGAGCGGAUAACCUCUCUAUGG
RNA 2: GGGAAUGGAUCCACAUCUACGAAUUCGUACCAUAGAGAGGCUUAUCCUGCUCACCGAGAUCGGAAGAGCACACGU
B6: target 1 A1G,C7U (mixed)
RNA 1: CACCCGUGCAAAAAUGCAGGGGUCUAAAACUGAGCGGAUAACCUCUCUAUGG
RNA 2: GGGAAUGGAUCCACAUCUACGAAUUCGUACCAUAGAGAGGUUAUUCGCUCGCCGAGAUCGGAAGAGCACACGU
B7: target 1 insA 3' of 22,insG 3' of 4 (mixed)
RNA 1: CACCCGUGCAAAAAUGCAGGGGUCUAAAACUGAGCGGAUAACCUCUCUAUGG
RNA 2: GGGAAUGGAUCCACAUCUACGAAUUCGUACACAUAGAGAGGUUAUCCGCGUCACCGAGAUCGGAAGAGCACACGU
B8: target 1 insU 3' of 5,insC 3' of 1 (mixed)
RNA 1: CACCCGUGCAAAAAUGCAGGGGUCUAAAACUGAGCGGAUAACCUCUCUAUGG
RNA 2: GGGAAUGGAUCCACAUCUACGAAUUCGUACCAUAGAGAGGUUAUCCGUCUCACCCGAGAUCGGAAGAGCACACGU
B9: target 1 insU 3' of 15,insU 3' of 6 (mixed)
RNA 1: CACCCGUGCAAAAAUGCAGGGGUCUAAAACUGAGCGGAUAACCUCUCUAUGG
RNA 2: GGGAAUGGAUCCACAUCUACGAAUUCGUACCAUAGAGUAGGUUAUCCUGCUCACCGAGAUCGGAAGAGCACACGU
B10: target 1 insG 3' of 6,insU 3' of 5 (mixed)
RNA 1: CACCCGUGCAAAAAUGCAGGGGUCUAAAACUGAGCGGAUAACCUCUCUAUGG
RNA 2: GGGAAUGGAUCCACAUCUACGAAUUCGUACCAUAGAGAGGUUAUCCGGUCUCACCGAGAUCGGAAGAGCACACGU
B11: target 1 insU 3' of 17,insC 3' of 10 (mixed)
RNA 1: CACCCGUGCAAAAAUGCAGGGGUCUAAAACUGAGCGGAUAACCUCUCUAUGG
RNA 2: GGGAAUGGAUCCACAUCUACGAAUUCGUACCAUAGUAGAGGUUCAUCCGCUCACCGAGAUCGGAAGAGCACACGU
B12: target 1 insC 3' of 22,insG 3' of 20 (mixed)
RNA 1: CACCCGUGCAAAAAUGCAGGGGUCUAAAACUGAGCGGAUAACCUCUCUAUGG
RNA 2: GGGAAUGGAUCCACAUCUACGAAUUCGUACCCAGUAGAGAGGUUAUCCGCUCACCGAGAUCGGAAGAGCACACGU
B13: target 1 C2A,C22U (mixed)
RNA 1: CACCCGUGCAAAAAUGCAGGGGUCUAAAACUGAGCGGAUAACCUCUCUAUGG
RNA 2: GGGAAUGGAUCCACAUCUACGAAUUCGUAUCAUAGAGAGGUUAUCCGCUAACCGAGAUCGGAAGAGCACACGU
B14: target 1 insU 3' of 20,insU 3' of 4 (mixed)
RNA 1: CACCCGUGCAAAAAUGCAGGGGUCUAAAACUGAGCGGAUAACCUCUCUAUGG
RNA 2: GGGAAUGGAUCCACAUCUACGAAUUCGUACCAUUAGAGAGGUUAUCCGCUUCACCGAGAUCGGAAGAGCACACGU
B15: target 1 insA 3' of 4,insU 3' of 2 (mixed)
RNA 1: CACCCGUGCAAAAAUGCAGGGGUCUAAAACUGAGCGGAUAACCUCUCUAUGG
RNA 2: GGGAAUGGAUCCACAUCUACGAAUUCGUACCAUAGAGAGGUUAUCCGCAUCUACCGAGAUCGGAAGAGCACACGU
B16: target 1 insC 3' of 22,insU 3' of 21 (mixed)
RNA 1: CACCCGUGCAAAAAUGCAGGGGUCUAAAACUGAGCGGAUAACCUCUCUAUGG
RNA 2: GGGAAUGGAUCCACAUCUACGAAUUCGUACCCUAUAGAGAGGUUAUCCGCUCACCGAGAUCGGAAGAGCACACGU
B17: target 1 A1C,C7U (mixed)
RNA 1: CACCCGUGCAAAAAUGCAGGGGUCUAAAACUGAGCGGAUAACCUCUCUAUGG
RNA 2: GGGAAUGGAUCCACAUCUACGAAUUCGUACCAUAGAGAGGUUAUUCGCUCCCCGAGAUCGGAAGAGCACACGU
B18: target 1 insC 3' of 18,insG 3' of 9 (mixed)
RNA 1: CACCCGUGCAAAAAUGCAGGGGUCUAAAACUGAGCGGAUAACCUCUCUAUGG
RNA 2: GGGAAUGGAUCCACAUCUACGAAUUCGUACCAUACGAGAGGUUAGUCCGCUCACCGAGAUCGGAAGAGCACACGU
B19: target 1 insA 3' of 15,insA 3' of 5 (mixed)
RNA 1: CACCCGUGCAAAAAUGCAGGGGUCUAAAACUGAGCGGAUAACCUCUCUAUGG
RNA 2: GGGAAUGGAUCCACAUCUACGAAUUCGUACCAUAGAGAAGGUUAUCCGACUCACCGAGAUCGGAAGAGCACACGU
B20: target 1 insG 3' of 7,insG 3' of 4 (mixed)
RNA 1: CACCCGUGCAAAAAUGCAGGGGUCUAAAACUGAGCGGAUAACCUCUCUAUGG
RNA 2: GGGAAUGGAUCCACAUCUACGAAUUCGUACCAUAGAGAGGUUAUCGCGCGUCACCGAGAUCGGAAGAGCACACGU
B21: target 1 insC 3' of 10,insU 3' of 2 (mixed)
RNA 1: CACCCGUGCAAAAAUGCAGGGGUCUAAAACUGAGCGGAUAACCUCUCUAUGG
RNA 2: GGGAAUGGAUCCACAUCUACGAAUUCGUACCAUAGAGAGGUUCAUCCGCUCUACCGAGAUCGGAAGAGCACACGU
B22: target 1 A1U,C7U (mixed)
RNA 1: CACCCGUGCAAAAAUGCAGGGGUCUAAAACUGAGCGGAUAACCUCUCUAUGG
RNA 2: GGGAAUGGAUCCACAUCUACGAAUUCGUACCAUAGAGAGGUUAUUCGCUCUCCGAGAUCGGAAGAGCACACGU
B23: target 1 insU 3' of 5,insA 3' of 2 (mixed)
RNA 1: CACCCGUGCAAAAAUGCAGGGGUCUAAAACUGAGCGGAUAACCUCUCUAUGG
RNA 2: GGGAAUGGAUCCACAUCUACGAAUUCGUACCAUAGAGAGGUUAUCCGUCUCAACCGAGAUCGGAAGAGCACACGU
B24: target 1 insU 3' of 22,insG 3' of 3 (mixed)
RNA 1: CACCCGUGCAAAAAUGCAGGGGUCUAAAACUGAGCGGAUAACCUCUCUAUGG
RNA 2: GGGAAUGGAUCCACAUCUACGAAUUCGUACUCAUAGAGAGGUUAUCCGCUGCACCGAGAUCGGAAGAGCACACGU
B25: target 1 insC 3' of 13,insC 3' of 3 (mixed)
RNA 1: CACCCGUGCAAAAAUGCAGGGGUCUAAAACUGAGCGGAUAACCUCUCUAUGG
RNA 2: GGGAAUGGAUCCACAUCUACGAAUUCGUACCAUAGAGAGCGUUAUCCGCUCCACCGAGAUCGGAAGAGCACACGU
B26: target 1 C2U,A18U (mixed)
RNA 1: CACCCGUGCAAAAAUGCAGGGGUCUAAAACUGAGCGGAUAACCUCUCUAUGG
RNA 2: GGGAAUGGAUCCACAUCUACGAAUUCGUACCAUUGAGAGGUUAUCCGCUUACCGAGAUCGGAAGAGCACACGU
B27: target 1 U3A,U19G (mixed)
RNA 1: CACCCGUGCAAAAAUGCAGGGGUCUAAAACUGAGCGGAUAACCUCUCUAUGG
RNA 2: GGGAAUGGAUCCACAUCUACGAAUUCGUACCAGAGAGAGGUUAUCCGCACACCGAGAUCGGAAGAGCACACGU
B28: target 1 G13A,G15C (mixed)
RNA 1: CACCCGUGCAAAAAUGCAGGGGUCUAAAACUGAGCGGAUAACCUCUCUAUGG
RNA 2: GGGAAUGGAUCCACAUCUACGAAUUCGUACCAUAGACAAGUUAUCCGCUCACCGAGAUCGGAAGAGCACACGU

target: T1, EsCas13d, nuclease-dead; experiment: crRNA (strand 1, pre-loaded); Mg2+; 40 mM Tris-HCl pH 7.5, 150 mM NaCl, 6 mM MgCl2, 1 mM DTT, 0.1% Tween-20, 0.2 mg/ml BSA; 25 C; 10 min per concentration, then washed; details: tags: His6-TwinStrep-SUMO cleaved; N-terminal SNAP kept (SNAP-Surface 488); label: 3' end held by stalled T7 RNA polymerase

Question: How did the Kd turn out when B1 was run?
Answer: 86 ± 22 nM

Question: How did the Kd turn out when B2 was run?
Answer: 15.5 ± 1.4 nM

Question: B3 was tested. Which Kd did it give?
Answer: 16.1 ± 2.3 nM

Question: B4 was tested. Which Kd did it give?
Answer: 24.3 ± 1.9 nM

Question: For B5, which Kd is on record?
Answer: 16.4 ± 0.7 nM

Question: Which Kd does the source give for B6 here?
Answer: 9.2 ± 0.7 nM

Question: B7 was tested. Which Kd did it give?
Answer: 9.6 ± 0.6 nM

Question: For B8, which Kd is on record?
Answer: 21.6 ± 2.4 nM

Question: With B9 as the binder, how does the Kd read?
Answer: 35.6 ± 3.2 nM

Question: With B10 as the binder, how does the Kd read?
Answer: 5.6 ± 0.6 nM

Question: With B11 as the binder, how does the Kd read?
Answer: ~50 nM

Question: Which Kd does the source give for B12 here?
Answer: 23.2 ± 2.3 nM

Question: With B13 as the binder, how does the Kd read?
Answer: ~30 nM

Question: How did the Kd turn out when B14 was run?
Answer: 10.6 ± 1.2 nM

Question: With B15 as the binder, how does the Kd read?
Answer: 9.4 ± 0.9 nM

Question: For B16, which Kd is on record?
Answer: 17.1 ± 1 nM

Question: Which Kd does the source give for B17 here?
Answer: 9.6 ± 0.9 nM

Question: B18 was tested. Which Kd did it give?
Answer: 59 ± 11 nM

Question: Which Kd does the source give for B19 here?
Answer: 15.9 ± 2 nM

Question: Which Kd does the source give for B20 here?
Answer: 6.23 ± 0.3 nM

Question: Which Kd does the source give for B21 here?
Answer: 23.9 ± 2.3 nM

Question: For B22, which Kd is on record?
Answer: 9.1 ± 1.3 nM

Question: B23 was tested. Which Kd did it give?
Answer: 11 ± 0.5 nM

Question: How did the Kd turn out when B24 was run?
Answer: 25.3 ± 1.7 nM

Question: Which Kd does the source give for B25 here?
Answer: 13.8 ± 0.7 nM

Question: How did the Kd turn out when B26 was run?
Answer: 21.2 ± 1.5 nM

Question: How did the Kd turn out when B27 was run?
Answer: 50 ± 5 nM

Question: Which Kd does the source give for B28 here?
Answer: 36 ± 9 nM
